Data from patent publication US20250277199, “NOVEL CRISPR-CAS NUCLEASES FROM METAGENOMES” (Brain Biotech AG, published 2025).

Target: T1, BMC08 (uncultured bacterium (metagenome))
T1 chain: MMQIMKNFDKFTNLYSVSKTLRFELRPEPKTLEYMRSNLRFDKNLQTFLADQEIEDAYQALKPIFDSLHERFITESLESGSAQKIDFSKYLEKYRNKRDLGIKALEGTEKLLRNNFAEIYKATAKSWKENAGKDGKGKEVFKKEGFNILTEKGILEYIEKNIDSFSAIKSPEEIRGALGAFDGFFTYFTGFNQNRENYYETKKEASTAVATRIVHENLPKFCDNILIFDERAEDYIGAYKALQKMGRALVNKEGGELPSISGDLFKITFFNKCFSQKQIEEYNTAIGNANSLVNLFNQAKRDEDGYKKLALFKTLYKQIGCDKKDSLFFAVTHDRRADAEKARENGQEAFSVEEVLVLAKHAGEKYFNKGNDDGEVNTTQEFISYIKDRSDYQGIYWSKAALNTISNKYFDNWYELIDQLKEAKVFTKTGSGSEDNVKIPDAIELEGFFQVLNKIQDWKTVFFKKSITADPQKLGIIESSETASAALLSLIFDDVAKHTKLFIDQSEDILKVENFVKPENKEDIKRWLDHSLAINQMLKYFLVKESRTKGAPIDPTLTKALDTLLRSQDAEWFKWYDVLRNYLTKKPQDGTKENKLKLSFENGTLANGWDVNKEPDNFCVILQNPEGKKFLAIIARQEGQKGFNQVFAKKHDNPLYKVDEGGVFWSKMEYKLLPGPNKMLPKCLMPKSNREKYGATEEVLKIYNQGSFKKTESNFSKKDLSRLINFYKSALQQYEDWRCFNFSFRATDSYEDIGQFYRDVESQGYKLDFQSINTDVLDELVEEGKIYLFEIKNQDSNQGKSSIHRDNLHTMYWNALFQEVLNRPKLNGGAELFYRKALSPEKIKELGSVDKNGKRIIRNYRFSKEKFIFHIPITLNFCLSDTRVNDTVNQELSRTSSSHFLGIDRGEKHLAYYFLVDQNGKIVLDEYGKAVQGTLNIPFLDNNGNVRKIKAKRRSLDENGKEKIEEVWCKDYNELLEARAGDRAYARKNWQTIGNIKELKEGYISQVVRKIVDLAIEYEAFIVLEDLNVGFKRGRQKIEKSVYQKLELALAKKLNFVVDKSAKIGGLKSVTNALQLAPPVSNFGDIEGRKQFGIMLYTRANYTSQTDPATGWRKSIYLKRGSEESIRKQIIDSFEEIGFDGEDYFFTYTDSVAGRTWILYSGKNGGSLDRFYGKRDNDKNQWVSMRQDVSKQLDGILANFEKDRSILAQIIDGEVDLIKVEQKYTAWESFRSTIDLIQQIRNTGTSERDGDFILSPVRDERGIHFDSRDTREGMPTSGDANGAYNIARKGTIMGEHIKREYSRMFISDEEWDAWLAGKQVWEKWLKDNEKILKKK
Test: cell_activity; PAM not stated; E. coli depletion, 30 C
Description: Overnight grown pre-cultures were diluted into fresh 60 ml LB-Kanamycin (25 μg/ml) (Example 4) or LB-Kanamycin (25μg/ml)/Nourseothricin (50 μg/ml) medium (Example 5) to obtain an optical density at 600 nm (OD600) of 0.06. The inoculated medium was incubated at 30° C. on a horizontal shaker at 250 rpm until the culture reached an optical density at OD600 of 0.2. For induced BMC (NN) nuclease expression, 600 μl 20% L-(+)-arabinose (w/v) was added to the culture at a final concentration of 0.2% (v/v). The cultivation was continued until the culture reached an optical density at OD600 of 0.5. Subsequently 50 ml culture was transferred into one 50 ml conical tube and harvested by centrifugation at 4° C. for 5 min and 4000×g. Pelleted cells were resuspended in 50 ml ultrapure water (ice-cold) and centrifuged at 4° C. for 5 min and 4000×g.
This washing procedure was repeated twice. Washed cells were resuspended in 25 ml 10% (w/w) glycerin and re-centrifuged at 4° C. for 5 min and 4000×g. The pelleted cells were resuspended in 5 ml 10% (w/w) glycerin. After the final centrifugation step at 4° C. for 5 min and 4000×g, the cells were resuspended in 125 μl 10% (w/w) glycerin. Aliquots of 25 μl competent cells were stored at −80° C. until use. For the transformation procedure, aliquots of competent cells were thawed on ice and 50-100 ng plasmid DNA (CRISPR/gRNA-Ec) was added. Prepared cells were electroporated at 1800 V, 25 μF and 200 Ω in 1 mm gap size electroporation cuvettes, using the Bio-Rad Gene Pulser Xcell Electroporation System. Subsequently, 975 μL of NEB® 10-beta/Stable Outgrowth Medium was added immediately after the pulse to the transformed cells. Regeneration was done at 30° C. on a horizontal shaker at 250 rpm. Finally, 25-100 μl of the cell suspension was plated onto selective M9-Glucose agar plates supplemented with Kanamycin (25 μg/ml)/Ampicillin (100 μg/ml) (Example 4) or Kanamycin (25 μg/ml)/Ampicillin (100 μg/ml)/Nourseothrin (50 μg/ml) (Example 5). Growth of transformed E. coli cells on selective agar plates was screened for 48 h at 30° C.
As described above, each of the BMC01, BMC02, BMC03, BMC04, BMC05, BMC07, BMC08, BMC09, BMC10, BMC11, BMC12, BMC13, BMC14, or BMC15 nucleases was co-transformed into E. coli with a gRNA targeting the E. coli malQ gene to visualize a) the activity and b) the DNA targeting efficiency of the BMC nucleases.

B1: malQ gRNA (BMC stem-loop + 24 nt spacer) ; malQ protospacer (ssRNA ; dsDNA)
RNA: GAUUUCUACUAUUGUAGAUGUGGCGGUACGUUGAUGCAUCGCG
DNA 1: GTGGCGGTACGTTGATGCATCGCG
DNA 2: CGCGATGCATCAACGTACCGCCAC
activity: > 99.9 % colony reduction
